# PMC8529501 (iScience, 2021)
# Molecular target: mTOR (FRB)-N-Luciferase reporter
# Test: split-luciferase complementation (dual element luciferase assay)
# Set-up: unit not given here
# Conditions: HEK293T cells, rapamycin treatment; parent: est. 13; read off a plot
row,response,Molecule
1,5.5,FKBP12-C-Luc (from UniProt P62942) E108A
2,1.9,FKBP12-C-Luc (from UniProt P62942) K45Q
3,13,FKBP12-C-Luc (from UniProt P62942) K45R
4,10,FKBP12-C-Luc (from UniProt P62942) K53Q
5,16,FKBP12-C-Luc (from UniProt P62942) K53R
6,5,FKBP12-C-Luc (from UniProt P62942) K48Q
7,16,FKBP12-C-Luc (from UniProt P62942) K48R

# Molecular target: T1, SIRT2 (Homo sapiens, UniProt Q8IXJ6)
# T1 construct: GST-tagged SIRT2 expressed in E. coli BL21
# T1 sequence (Q8IXJ6 2-389): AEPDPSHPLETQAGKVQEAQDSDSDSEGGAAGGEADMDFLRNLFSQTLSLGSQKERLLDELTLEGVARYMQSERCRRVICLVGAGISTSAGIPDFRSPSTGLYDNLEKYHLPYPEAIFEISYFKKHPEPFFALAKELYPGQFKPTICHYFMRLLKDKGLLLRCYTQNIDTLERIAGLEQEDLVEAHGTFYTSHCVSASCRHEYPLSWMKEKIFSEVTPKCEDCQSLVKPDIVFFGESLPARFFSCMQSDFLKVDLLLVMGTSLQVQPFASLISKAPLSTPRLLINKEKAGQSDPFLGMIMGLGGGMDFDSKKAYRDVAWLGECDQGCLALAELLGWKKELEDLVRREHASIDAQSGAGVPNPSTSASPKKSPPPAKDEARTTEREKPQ
# Test: ITC; also label-free MST (Kd […]) and native PAGE
# Type: binding
# Conditions: not given
row,Molecule,Kd [nM]
1,CO[C@H]1C[C@@H]2CC[C@@H](C)[C@@](O)(O2)C(=O)C(=O)N2CCCC[C@H]2C(=O)O[C@H]([C@H](C)C[C@@H]2CC[C@@H](O)[C@H](OC)C2)CC(=O)[C@H](C)/C=C(\C)[C@@H](O)[C@@H](OC)C(=O)[C@H](C)C[C@H](C)/C=C/C=C/C=C/1C [Rapamycin],9.5
